Target: His-tagged MafAI (MafAI.1 of N. meningitidis BB-1, from plasmid pEN-mafAI-H) (Neisseria meningitidis strain BB-1)
Test: semi-native SDS-PAGE with Western blot (heat modifiability); cell envelopes of BB-1, samples heated at 95°C or not before electrophoresis; sample buffer with 0.2% SDS and no β-mercaptoethanol, run on ice; detected with anti-His-tag antibodies (MafAI) or anti-MafAII antiserum

Substance: His-tagged MafAI (MafAI.1 of N. meningitidis BB-1, from plasmid pEN-mafAI-H) (natural protein)
- stoichiometry N: 8 subunits

From PMC7738311
